Maximal extent of pHER3 suppression, Kato III cells and potency in pHER3 ELISA, HCC827 cells, against 2C2 (fold less potent) data for 1 substance are collected here from patent US20190040143A1.

The experiment has as its target human HER3 on human cancer cell lines (human) (UniProt P21860). Briefly: cell-based or functional assay.

Take “U1-59 anti-HER3 monoclonal antibody (International Patent Publication WO 2007077028)”: the maximal extent of pHER3 suppression, Kato III cells was 60% and the potency in pHER3 ELISA, HCC827 cells, against 2C2 (fold less potent) came out at 10.
